Results reported in the DeepSol protein solubility set.

Test: soluble on expression in E. coli; label from the status in PepcDB or PDB records

Row | Sequence | soluble on expression in E. coli
1 | MFHAAFMEERVFSDRGSMRNACSSIEYDGCRQGQSGPLLEEKEVKRKLFGALALVAMLAAPALAEAATRGFATANVNMRSGPSTAYPAVVVIPVGAPLTVHGCLSDTPWCDVSFVNGRGWVAGRYIQTTFRQNRVYVEPRYYRDLGVPVITFEAGRYWDRYYRDRDFYRERDRWRRPPPSGGYWNAPPPSAGWDRPRPRDDWRDGRRDDGRRDEWRDPRQGGPNDGRWERRYGDWNQGDRNQDRPRRDDDRRRWEDENRDRNRDRDSNRDGNRDRPQNQYDGQRGQLEGQPRPPAPAPDAPLQGCIIGSPGCAQRLEHHHHHH | soluble
2 | MFHCKGLYMSDQNDKLKNLKTSSMDRRLSIAKASLLAGTRWATASATSMFSSEAEKEKKRKKAMTEQANYLVSEIGKLKGSIVKIGQMMALYGEHFLPEEITQALNTLNNQTVALAWPAIKAHLQEQLGSKLDDLIIDHEPIGTASLAQVHRATRKSDGLELVLKIQYPGVAEAIDSDMSLFKNMLKLTRMVPQTREFDQWFDEVREMMHREVSYDIEAATTRRFAERLKTDPRYAVPQIIDAYCTTKILCMTFERGVPINSPVMLSLPQERRNKLGEASLEIAVREIFEWGEMQTDPNFGNYLVRLGNGTDIQDKIVLLDFGAIRQFDEHLLSVARNLIRAGYNHSNEEMVRAMTGYSFFDSIPESIKPDMAKVFLLATEAFSCPENNPDMPTGLMDEDNRYDWKKSQLHSRVMQQASKSMASRYFSVPPKEFMFISRKFIGAYTFMTVIEAKTNVRRMISHFVK | soluble
3 | MFIGYKSSKSKKILIMNSKGGAGKSSLTMAMARLFSSKNIKTELIDLDPQNTSYFWGGNNKEIRTQTFLTSSRVPFSLALKLELDTELTIIDTPSNFNKFELDKYLSLADKIILPLQASPIDLHSILGFIKNLIASPVYKKRNIPVCFVITRYKGRVGDLELMHRVLNKLKYPIIGVMSESDAYQSLFIDEDVKVFQYLDKNLWVEIERWINI | not soluble
4 | MFILSAQRLSGTQVFRRLAEGCTGYSVSSGCRQRRRCCPGAPQRPRRVRVNALQLQSGLADPLDPKSEAEVREHLRSNSPAERALGINYARYLDESTRYDILLEMMEDTDPQVRYAAVTQLATVGSHDRQRTLKAVRKILWNTEEDASVRAGAADVLGGLRFHEAFPDLEKLFHESKDWVVRFSIIAALGEMGVREAFPILVEALHANKEPLVQLAAIGALGELGDERARVYLEPLVNSSDASIVERARFALDALDARGSERT | not soluble
5 | MFKGDMNKKRAKALQKVKEAITLHGGQTILSTGITGDDARLAKAVCEAGVKLLEPNHPALALARGHKGVSNMHAAEQIRHEITNSQMAEAVHGVRNVVPDDIFITVGIAGGFTETLPVPLSEKEILEIARAGADGLHTHKSDWDDLQDIVNLAHQYGLTVDAYIGHPDDLHTFGIPARTPEEVASVAKRMQDIGVDMIGLMTGMSYEGVAAGDIPQMIKDRLRALVGAVDVPTLAEGGINLANAKAFKDTGVNILVVGTAIDNMVCNAAKEAVTPFIVH | soluble
6 | MFKRLMMVALLVIAPLSAATAADQSNPYKLMNEAAQKTFDRLKNEQPKIRANPDYLRDVVDQELLPYVQVKYAGALVLGRYYKEATPAQREAYFAAFREYLKQAYGQALAMYHGQTYQIAPEQPLGDATIVPIRVTIIDPNGRPPVRLDFQWRKNTQTGNWQAYDMIAEGVSMITTKQNEWSDLLRTKGIDGLTAQLKSISQQKITLDEKQLEHHHHHH | soluble
7 | MFLKAGESKTVTIDLDERAFAYWSEKYNDWHVEAGEYAIEVGVSSRDIADTVAVALDGDGKTQPLTEWSTYGEWEADPFGAKIVAAVAAAGEAGELTKLPDNAMMRMFLNPMPINSLPTLLGEGGKKIAQFMVDEYAKLAK | not soluble
8 | MFLKRIELQREKVLSFQEYPFSIPAIKHFQRLELKSRVTFFVGENGSGKSTLLEAIADKCEFNTAGGGRNNYYEVDASESALGDYIRLSWLPKVSNGFFLRAESFYHFASHVDEVDARHAYGGRSLHHQSHGEAFLSLFANRFNRKGIYLLDEPEAALSPRRQLSFLAILHDLVSSGDSQFIIATHSPILLGYPHATILSFDHGTIEETTYEQTEHYQLTRYFLENRERMLRELLGELEHHHHHH | not soluble
9 | MFLSTKFLPMSDTVIRIENLSKKYIIAHQQQERYTVLRDVIANQIKSLGSLINPKAKTENPNCEEFWALKDVSFEIKQGDRVGIIGRNGAGKSTLLKILSRITEPTHGCINIKGRIASLLEVGTGFHPELTGRENIYLNGAILGMSKAEIKRKFDEIVAFSEVEKFLDTPVKRYSSGMYVRLAFAVAAHLEPEILIVDEVLAVGDAAFQQKCLGKMEDVGKEGRTVLFVSHNMATVKQLCNCAFLLYQGNLIFQGNPHEAISQYMQKSTQGKHFHQANIYHHIKGDFRAEIEKITINNLDNSEIALSIFEKVKISIKYKINKPIDELDFFVLIYNLEDGEVQTSLFQRDSLSNIQPLSNYGTISVEFTNPLMPGKYTISAGIFDKNKRFVDWVELAESFYVESAFINGNKYDQRLGKISIQGTWYAE | not soluble
10 | MFLTAVRRSSNVLKTFKPLYDRVLVERVAAETKTKGGIMLPEKSQGKVLEATVVSAGAGLRNEKGELVALTVKPGDRVLLPEYGGTKVVVEDKEYSIFRESDLLGVFH | not soluble
11 | MFNFEKFWQHFNDEMRARFNEVAYNAWFKNTKPISYNQKTHELKIQVQNPVAKGYWEKNLSSQLIQSAYGYAGVELLPVFQISEDSDTPERIVTPEPQHNLQTTPTRAPQREFAKDLKLNEKYTFDNFVQGEGNKLAAGAALAVADSPGSFYNPLFIFGGVGLGKTHLMQAIGHQMLVERPNAKVVYIQSETFVNDFINSIKNKTQDKFREKYRTCDLLLVDDIQFFAKKEGIQEEFFHTFETLYNDQKQIVMTSDRLPTEIPDLSERLVSRFTWGLQVEITPPDLETRIAILRRKAEAEGLTIDDDTLDYIASQVDTNIRELEGALVKVQAYATIEKADIDINLAREALVDLKLVQKNRGLQIPKIQEVVANYFQTSTAELKGKKRVRQIVIPRQIAMYLSRELTDASLPKIGQEFGGKDHTTVMHAYDKIDKQMKTDADIKTAVFDLKQMLEHLEHHHHHH | not soluble
12 | MFQALLTKLKNNAALGAAANNLNKFRSSNLGNQRRSVSVAVTSTSPKSEKPVAREHMIYDETHFVMQKSLGKLIEEKINPNVAKWEQDGRYPAHLVFKMLGDHGVFGVNKPEAFGGTGTDIAMATAIAEQMGAINCGSIPMSVMVQTDMSTPALAQFGSDALRERFLRPSITGDLVSSLAVSEPHAGSDVSAVHTHARRQGSDLIINGSKMWITNGGQADWACVLVNTSNTSNVHKNKSLVCVPLDAVGVHRSTPLDKLGMRSSDTVQLFFEDVRVPSSYIIGEEGRGFGYQMKQFNDERLVTVAVGLLPLQKCIDETIEYARDRLLFGKTLLDQQYIQFQLAELEAELEATRALLYRTVLARSRGDDVSMLTAMAKLKIGRLARAITDQCLQVWGGAGYLNENGISRAFRDFRLFSIGAGCDEVMMRIIHKAQSRRQLKKA | not soluble
13 | MFRIASSSYSQFIASANPSIQTRCISIARIDQKIKRGNSDRRVIHAKKFTKQTDSPASVAGDGFILSKTFLQNAIAHQPPSGLTPVGRDGGRDEKKLILHPKEIVEHLNKYVVGQEEAKKYLAVAVYQHYRRVENNLRVTEQWMLSEAVAAAKERKKMRKQNPEEEEYYPEYVQKSQRQILKDLEKRQDMILDKSNMILLGASGTGKTFMTQKLAEVLDVPIVICDCTTLTQAGYVGDDVDTVIQKLLAEAMGDIEKCQRGIVFLDEFDKIYTSSDPLHTSGNRDVSGKGVQQALLKLVEGSLVKVRDPLAPNSKVTIDTSNILFIASGAFSNIEHIVARRMDKRLVTSLLFHFPQ | not soluble
14 | MFRLLFVSPRIAPNTGNAIRTCAATGCELHLVEPLGFDLSEPKLRRAGLDYHDLASVTVHASLAHAWEALSPARVFAFTAQATTLFTNVGYRAGDVLMFGPEPTGLDEATLADTHITGQVRIPMLAGRRSLNLSNAAAVAVYEAWRQHGFAGAV | not soluble
15 | MFRQLKKNLVATLIAAMTIGQVAPAFADSADTLPDMGTSAGSTLSIGQEMQMGDYYVRQLRGSAPLINDPLLTQYINSLGMRLVSHANSVKTPFHFFLINNDEINAFAFFGGNVVLHSALFRYSDNESQLASVMAHEISHVTQRHLARAMEDQQRSAPLTWVGALGSILLAMASPQAGMAALTGTLAGTRQGMISFTQQNEQEADRIGIQVLQRSGFDPQAMPTFLEKLLDQARYSSRPPEILLTHPLPESRLADARNRANQMRPMVVQSSEDFYLAKARTLGMYNSGRNQLTSDLLDEWAKGNVRQQRAAQYGRALQAMEANKYDEARKTLQPLLAAEPGNAWYLDLATDIDLGQNKANEAINRLKNARDLRTNPVLQLNLANAYLQGGQPQEAANILNRYTFNNKDDSNGWDLLAQAEAALNNRDQELAARAEGYALAGRLDQAISLLSSASSQVKLGSLQQARYDARIDQLRQLQERFKPYTKMLEHHHHHH | soluble
16 | MFRREIQERENWRELARQFGFGFHSMYGQPYWDESAYYQFTLEQIEHDLESPTEELHQMCLSIVDEVVRCEQLLTKCAIPELMWEQVASSWQRKEPSLYSRLDFAYNGTSPAKLLENNADTPTSLFETGFWQWVWLEDVVNKGRIHQAADQFNILQDFLIERFAEIAKYQPGQTLHFSCCKYTEEDKATVQYLEDCAREVGLATAFVYVEDIGVTEDGKFVDVDRRAIRWMFKLYPWEFMFEEEYAKYLATANVNWLEPMWKSILSNKALLPLLWERFPNHPNLLPAYFANDPNASCLNDYVIKPLFSREGANIEIVKDGKRLVKTPGPYESKFNIVQKYHPLPKFGQNHTLIGSWLVNDRAAGISIREDSSLVTQDMARYIPHVILT | not soluble
17 | MFSPLECRLAVACKFQDDRYYKLFHQYFDLLAQVHSVVETMDGLWMLRVWRAQKFGPESIKERRERQLFHVTQFSFKRYIVPPNPRIGKAIEEFGKEYLIEINVYDEHRADLVSLNSGNFVAIQNVHAASTPHREIQILHGGGEAYQRGISTVPVDFEVDAFQNFKRKVESVLENVLYDENFIEFQQPEEVTENRVPEEPQLNIHKDPLPSDLPQ | soluble
18 | MFTKRHRITLLFNANKAYDRQVVEGVGEYLQASQSEWDIFIEEDFRARIDKIKDWLGDGVIADFDDKQIEQALADVDVPIVGVGGSYHLAESYPPVHYIATDNYALVESAFLHLKEKGVNRFAFYGLPESSGKRWATEREYAFRQLVAEEKYRGVVYQGLETAPENWQHAQNRLADWLQTLPPQTGIIAVTDARARHILQVCEHLHIPVPEKLCVIGIDNEELTRYLSRVALSSVAQGARQMGYQAAKLLHRLLDKEEMPLQRILVPPVRVIERRSTDYRSLTDPAVIQAMHYIRNHACKGIKVDQVLDAVGISRSNLEKRFKEEVGETIHAMIHAEKLEKARSLLISTTLSINEISQMCGYPSLQYFYSVFKKAYDTTPKEYRDVNSEVML | soluble
19 | MFVEALKRQNPALISAALSLWQQGKIAPDSWVIDVDQILENGKRLIETARLYGIELYLMTKQFGRNPWLAEKLLALGYSGIVAVDYKEARVMRRAGLPVAHQGHLVQIPCHQVADAVEQGTDIITVFTLDKAREVSAAAVKAGRVQPVLLKVYSDDDFLYPGQESGFVQHSLHEVIAEIKKLPGLHLAGLTHFPCLLWDEAAGKVLPTPNLHTLVQARDQLAKSGIAIEQLNVPSATSCTSLPLLAEYGATHAEPGHALTGTIPANQQGDQPERIAMLWLSEISHHFRGDSYCYGGGYYRRGHAQHALVFTPENQKITETNLKTVDDSSIDYTLPLAGEYPVSSAVVLCFRTQIFVTRSDVVLVSGIQRGEPEIVGRYDSLGNPLEA | not soluble
20 | MFVQTTNQSNTLSNFILTCAFPAGAPVTNYPPSLSHTSSPGSSVYEASTKTEAVHKLESYQLQASRDPCTIPDELREEMKRMKRQEGAFKTALCLSHKRGKTCIYGEQCKFAHGVHELRCQQAKKNHRNYKTVLCDKFTTTGYCKYGIRCQFIHRSMDATNVTRPIDTADFKLDVQSDLSRAFALDSSSFLPNWHCSALLN | not soluble
